T1: human CD84 on cells (human, UniProt Q9UIB8 22-345)
T1 construct: the cells were 300.19 cells stably transfected with CD84 full-length DNA, or Raji, Ramos, MOLM-13 cells, lymphocytes and monocytes with their own CD84; also called LY9B; SLAMF5
T1 sequence: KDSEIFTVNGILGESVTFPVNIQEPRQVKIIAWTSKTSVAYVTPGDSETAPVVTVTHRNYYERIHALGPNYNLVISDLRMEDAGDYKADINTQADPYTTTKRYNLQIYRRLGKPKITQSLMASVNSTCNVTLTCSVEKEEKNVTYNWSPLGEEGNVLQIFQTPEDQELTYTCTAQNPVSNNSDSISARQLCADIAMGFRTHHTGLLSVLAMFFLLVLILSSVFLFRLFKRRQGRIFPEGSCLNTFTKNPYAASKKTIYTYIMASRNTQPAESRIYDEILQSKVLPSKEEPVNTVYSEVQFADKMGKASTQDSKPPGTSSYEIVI


These binders were tested against T1, human CD84 on cells (assay: flow cytometry, hybridoma supernatant, 300.19 cells transfected with CD84).

| 300.19-CD84 binding [%] | Binder |
| --- | --- |
| 92.5 | 152-1D5 (antibody, IgG1, V domains shown, tested as hybridoma supernatant; also called anti-CD84 mouse monoclonal antibody 152-1D5) VH: QVQLQQPGAEVVQPGTSVKLSCKASGYNFTNYWINWVKLRPGQGLEWIGDIYPVSGTTNYNEKFKRKATLTVDTSSSTGNMQLSSLASEDSALYYCASGTGRFAYWGQGTLVTVSA VL: DIVLTQSPASLAVSLGQRATISCRASQSVSTSSYSYMHWYQQKPGQPPKLLIKFASNLESGVPARFSGSGSGTDFTLNIHPVEEEDTATYYCQHSWEIPYTFGGGTKLEIK |
| 97.7 | GYCD84.1-97 (antibody, IgG2a, V domains shown, tested as hybridoma supernatant) VH: QVQLQQPGAELVKPGTSVKLSCKASGYNFTSYWINWVKLRPGQGLEWIGDIYLGSGSTNYNEKFKSKATLTVDTSSSSAYMQLSSLVSEDSALYYCATSGGYLGYWGQGTTLTVSS VL: DIVLTQSPASLAVSLGQRATISCRASQSVSTSSYSYMHWYQQKPGQPPKLLIKFASNLESGVPARFSGSGSGTDFTLNIHPVEEEDTATYYCQHSWEIPYTFGGGTKLEIK |
| 93.2 | GYCD84.5.171 (antibody, IgG1, V domains shown, tested as hybridoma supernatant) VH: EVQLVESGGGLVQPKGSLKLACAASGFTFNIYAMNWVRQAPGKGLEWVARIRSKSNNYARFYADSVKDRFTISRDDSQSMLYLQMNNLKTEDTAMYYCVRPLRSYFSMDYWGQGTSVTVSS VL: SIVMTQSPKSMSMSVGERVTLSCKASENVDTYVSWYQQKPEQSPKLLIYGASNRYTGVPDRFTGSGSATDFTLTISSVKAEDLADYHCGQTYSYPWTFGGGTKLEIK |

— patent US20250064853A1 (GYALA THERAPEUTICS SOCIEDAD LIMITADA, published 2025)
